# pKd: −log10 of the molar value. “And” between values parts separate entries of the source, which are not always exact repeats. Identical values can stand only once.
# What was measured:
# [1] = target: prostate specific antigen (PSA) (human) (UniProt P07288); experiment: SPR, Biacore 3000, PSA amine-coupled on CM4 chip, antibody in flow at 12.5-100 nM
# [2] = target: prostate specific antigen (PSA) (human) (UniProt P07288); experiment: SPR, Biacore 3000, PSA amine-coupled on CM4 chip, antibody in flow
# [3] = target: prostate specific antigen (PSA) (human) (UniProt P07288); experiment: SPR, Biacore 3000, PSA amine-coupled on CM4 chip, antibody in flow; dissociation followed 8 h
# Chain of prostate specific antigen (PSA) (human) (P07288 25-261 limits assumed): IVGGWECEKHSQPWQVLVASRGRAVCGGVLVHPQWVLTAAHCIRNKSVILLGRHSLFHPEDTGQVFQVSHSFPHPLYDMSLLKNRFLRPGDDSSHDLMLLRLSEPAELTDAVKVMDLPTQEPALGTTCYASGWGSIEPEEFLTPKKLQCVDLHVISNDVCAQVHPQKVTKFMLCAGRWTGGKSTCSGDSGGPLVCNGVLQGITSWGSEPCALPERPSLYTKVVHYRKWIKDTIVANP
kon [1],pKd [2],koff [3],Substance
290000 M⁻¹ s⁻¹,10.70,6.6e-06 s⁻¹,m5A10-DFO (antibody)
280000 M⁻¹ s⁻¹,10.70,6.3e-06 s⁻¹,m5A10-DOTA (antibody)
270000 M⁻¹ s⁻¹,10.70,6.3e-06 s⁻¹,m5A10-DTPA (antibody)
290000 M⁻¹ s⁻¹ and 250000 M⁻¹ s⁻¹,10.70,6.3e-06 s⁻¹ and 5.4e-06 s⁻¹,murine 5A10 monoclonal antibody (m5A10)

# Reference: US20180273634A1
